The results in this text go back to publication PMC4424398, “A Human Platelet Receptor Protein Microarray Identifies the High Affinity Immunoglobulin E Receptor Subunit α (FcεR1α) as an Activating Platelet Endothelium Aggregation Receptor 1 (PEAR1) Ligand* ^([image sbox.jpg])” (Molecular & Cellular Proteomics : MCP, 2015).

One may read the koff as the first-order rate constant of dissociation. For orientation: stoichiometry N means a count of units in the complex or per binding partner. By Kd is commonly meant the free concentration of one partner at which half of the binding sites on the other are occupied at equilibrium, for simple one-to-one binding.

Assay [1] concerns the target T1, PEAR1 ectodomain, monomeric biotinylated bait (human, UniProt Q5VY43 21-755, biotin (on the biotinylatable peptide tag)).
T1 chain: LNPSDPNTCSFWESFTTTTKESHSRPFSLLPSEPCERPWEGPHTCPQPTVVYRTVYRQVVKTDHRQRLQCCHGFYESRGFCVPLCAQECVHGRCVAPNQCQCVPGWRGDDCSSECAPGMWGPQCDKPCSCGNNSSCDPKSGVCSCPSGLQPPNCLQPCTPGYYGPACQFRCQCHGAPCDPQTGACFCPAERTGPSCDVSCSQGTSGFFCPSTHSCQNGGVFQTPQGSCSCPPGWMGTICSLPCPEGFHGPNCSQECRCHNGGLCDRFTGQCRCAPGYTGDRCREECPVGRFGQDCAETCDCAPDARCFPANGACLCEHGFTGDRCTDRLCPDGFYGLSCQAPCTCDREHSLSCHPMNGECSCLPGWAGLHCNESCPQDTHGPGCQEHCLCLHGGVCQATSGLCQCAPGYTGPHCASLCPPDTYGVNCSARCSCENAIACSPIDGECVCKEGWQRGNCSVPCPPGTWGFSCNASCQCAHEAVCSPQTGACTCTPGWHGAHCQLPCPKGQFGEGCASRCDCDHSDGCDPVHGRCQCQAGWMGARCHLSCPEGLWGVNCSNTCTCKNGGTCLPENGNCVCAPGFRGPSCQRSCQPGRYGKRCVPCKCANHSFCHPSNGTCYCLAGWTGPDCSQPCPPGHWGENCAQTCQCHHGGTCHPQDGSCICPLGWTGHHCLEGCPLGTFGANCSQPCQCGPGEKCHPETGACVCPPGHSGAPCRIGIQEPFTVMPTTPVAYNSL
Put plainly: SPR; kinetic analysis.

Assay [2] concerns the target T2, PEAR1 ectodomain, monomeric biotinylated bait (human, UniProt Q5VY43 21-755, biotin (on the biotinylatable peptide tag)).
T2 construct: human platelet endothelium aggregation receptor 1 (PEAR1), whole ectodomain; also called PEAR1 bait; immobilized PEAR1; source: HEK293E, transient transfection, purified (Ni2+-NTA via His6)
T2 sequence (looked up): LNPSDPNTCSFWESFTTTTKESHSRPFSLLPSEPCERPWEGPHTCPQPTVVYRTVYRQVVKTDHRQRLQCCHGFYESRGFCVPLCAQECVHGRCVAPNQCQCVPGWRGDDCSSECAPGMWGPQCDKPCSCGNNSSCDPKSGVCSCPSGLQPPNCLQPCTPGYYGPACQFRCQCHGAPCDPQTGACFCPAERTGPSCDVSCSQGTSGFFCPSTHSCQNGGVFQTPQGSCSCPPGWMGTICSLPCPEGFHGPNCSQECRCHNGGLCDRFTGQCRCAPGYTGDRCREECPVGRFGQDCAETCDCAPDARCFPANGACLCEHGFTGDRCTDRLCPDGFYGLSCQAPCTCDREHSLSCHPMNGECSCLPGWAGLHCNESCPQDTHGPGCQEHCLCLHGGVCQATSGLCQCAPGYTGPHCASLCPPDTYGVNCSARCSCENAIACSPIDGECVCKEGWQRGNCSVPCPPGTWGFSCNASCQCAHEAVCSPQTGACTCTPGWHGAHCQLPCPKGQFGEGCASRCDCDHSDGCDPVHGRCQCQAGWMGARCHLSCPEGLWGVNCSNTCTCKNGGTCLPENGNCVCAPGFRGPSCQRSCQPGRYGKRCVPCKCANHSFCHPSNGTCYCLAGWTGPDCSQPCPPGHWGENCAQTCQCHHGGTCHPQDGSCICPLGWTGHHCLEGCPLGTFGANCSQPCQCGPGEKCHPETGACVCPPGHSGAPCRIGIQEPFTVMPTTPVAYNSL
Put plainly: SPR; Biacore T100; PEAR1 immobilised; seven serial dilutions of FcεR1α-Cd4-His6 injected at 100 μl/min; kinetic analysis, 1:1 binding model. As to conditions: both partners purified. Background: In SPR one partner is held on a chip, and binding of the other changes the refractive index at the surface.

Assay [3] concerns the target T2, PEAR1 ectodomain, monomeric …. Put plainly: SPR; Biacore T100; PEAR1 immobilised; gel-filtered monomeric FcεR1α-Cd4-His6 serially diluted and injected at 10 μl/min until equilibrium; reference-subtracted; equilibrium analysis. The note with it: both partners purified.

B1: FcεR1α-Cd4-His6, purified monomeric soluble protein (receptor, human, UniProt P12319 26-205, looked up)
chain: VPQKPKVSLNPPWNRIFKGENVTLTCNGNNFFEVSSTKWFHNGSLSEETNSSLNIVNAKFEDSGEYKCQHQQVNESEPVYLEVFSDWLLLQASAEVVMEGQPLFLRCHGWRNWDVYKVIYYKDGEALKYWYENHNISITNATVEDSGTYYCTGKVWQLDYESEPLNITVIKAPREKYWLQ
notes: also called soluble FcεR1α-Cd4-His6; source: HEK293E, transient transfection, purified (His6), resolved by gel filtration just prior to use
On to B1, for which the off-rate (koff) in assay [1] was 0.0788 s⁻¹. Moreover, the “stoichiometry N” value in assay [2] was found to be 1. The affinity in assay [3], expressed as Kd, was 27.4 ± 1.3 nM.
